Legend:
[1] = biological target: His-tagged extracellular domain of EGFR (aa 20-643) (UniProt P00533); assay: ELISA, coated EGFR-His
[2] = biological target: His-tagged extracellular domain of EGFR (aa 20-643) (UniProt P00533); assay: ELISA, coated EGFR-His, detection with HRP anti-human Fc antibody; the legend paragraph 41 and paragraph 295 name Cetuximab as this control, the sheet prints hu225-IgG [panel EGFR-His]

B1: hu225-IgG (antibody, V domains shown)
VH: EVQLVESGGGLVQPGGSLRLSCAASGFSLTNYGVHWVRQAPGKGLEWLGVIWSGGNTDYNTPFTSRFTISRDNSKNTLYLQMNSLRAEDTAVYYCARALTYYDYEFAYWGQGTTVTVSS
VL: DIQLTQSPSFLSASVGDRVTITCRASQSIGTNIHWYQQKPGKAPKLLIKYASESISGVPSRFSGSGSGTEFTLTISSLQPEDFATYYCQQNNNWPTTFGAGTKLEIK
[1]
  EC50: 0.2 nM
[2]
  EC50 (read off the curve): 0.2 nM

Source: patent publication US20190194350A1
